Measurements as given in the supplement of paper PMC10567573.
± gives the standard deviation.

Assay: protein stability index of a GFP-peptide fusion (GPS, HEK-293T) (PSI 1-6); higher = more stable
Conditions: c terminus: a fixed tail appended
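Further: 24-mer peptide tiles fused after GFP, lentivirally expressed, FACS-sorted into six equal bins by GFP/DsRed ratio, decoded by Illumina sequencing, PSI is the read-weighted mean bin number.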

Sequence	protein stability index (treatment: DMSO)	protein stability index (treatment: MLN4924 1 uM, 8 h)
VRNLFGLDPSSGAIHVLGPIDFEE [PCDHGC5]	2.19 ± 0.14	2.33 ± 0.14
PPPPHPYNPHPGFPELGYSYGGGS [DVL3]	3.4 ± 0.32	3.6 ± 0.32
GTPSLLRGKRGGHATNYRIVAPRS [EMID1]	4.1 ± 0.12	3.88 ± 0.32
LSPAQKDLYRDVMLENYSNLVSVG [ZNF649]	2.37 ± 0.74	3.02 ± 0.77
LGGEQAEEKAFESVIEPVQESSFR [MIA2]	5.16 ± 0.54	5.44 ± 0.1
YGTKKFMQELTEMLGFRPYRFYFY [SLC6A17]	2.29 ± 0.95	2.28 ± 0.48
RKWHKASNYIFVAIFWIVFLLLIV [P2RY14]	3.34 ± 0.35	3.43 ± 0.17
PGACPALGTKSCSSSCAVHDLIFW [RTN3]	2.35 ± 0.33	2.29 ± 0.39
MRRGAPQDQELVGPGPPGRGSRGA [MOSPD3]	5.31 ± 0.44	5 ± 0.28
RESCPPLGLETLKITDFQLHASTV [CPXM2]	3.29 ± 0.15	3.32 ± 0.14
FGSLPSPKELSSFSFSMKGHEKTA [DLC1]	3.53 ± 0.19	3.74 ± 0.25
QALRGLEGYTWRVAQLEDRRSTTD [ZSWIM9]	3.91 ± 0.23	3.75 ± 0.52
YLLKFLLVGDSDVGKGEILESLQD [RAB40C]	2.72 ± 0.38	2.45 ± 0.49
TEGVTQLKLTVVEDVTVGRRQAVA [ZFYVE21]	4.07 ± 0.18	4.12 ± 0.19
LIQHQRIHKGEKPYQCSQCSKSYS [ZSCAN9]	2.89 ± 0.3	3.26 ± 0.26
PSDFCGLTHLVKLDLSKNKLQQLP [LRRC59]	2.17 ± 0.31	2.16 ± 0.17
GFEFSVPFTEMKLRPRNFRSPAGG [TNXB]		3.66 ± 0.66
TLHNLSHHREGLLAIFKSGGIPAL [CTNNB1]	2.4 ± 0.11	2.38 ± 0.24
AEKCLDFLVDMFNDEIEEVRLQSI [INTS4]	2.94 ± 0.16	2.94 ± 0.4
LFFPVIYDVKYLMKSCKNLKGGLQ [CNOT7]	2.72 ± 0.35	2.5 ± 0.28
IAVLGIVMLKRIHSLYRRTGASFQ [SCAMP3]	2.34 ± 0.53	2.25 ± 0.18
SIPQSSLEPLKAIIQYRLPMKKNN [ACSBG2]	3.48 ± 0.14	3.49 ± 0.3
AFGYFITACAVIILTIICYLGLPR [SLC29A1]	2.3 ± 0.52	2.32 ± 0.41

Sequence	protein stability index (treatment: DMSO)	protein stability index (treatment: MLN4924 1 uM, 8 h)
KTYHYLYLAMLERFQDGDNILEKE [FEM1B]	2.03 ± 0.37	2.35 ± 0.2
GIPKGVMLSHDNITWIAGAVTKDF [ACSBG2]	2.67 ± 0.15	2.74 ± 0.15
LIKLGLERFHGVGILGFNSAEWFI [ACSBG2]	1.91 ± 0.25	2.13 ± 0.65
GPDTQDLEGQSPPQSLPSTPKAAW [PBXIP1]	5.2 ± 0.28	5.07 ± 0.18
SGRKNSTSKDLVTLGASSLREERG [C6orf223]	4.77 ± 0.099	4.87 ± 0.26
LQAKQDGKKDVSHSSPVDLKIPQV [LCOR]	4.94 ± 0.21	4.92 ± 0.06
ALSEILRIGKRPDLLTFVQNLCKG [NEUROD6]	2.49 ± 0.46	2.29 ± 0.21
VSVTYCSVSQDFPGSNLNLLTNNS [ETS2]	2.59 ± 0.39	2.32 ± 0.39
APFTDEQLYMEQFTKANFWYQPSF [CARM1]	2.31 ± 0.42	2.21 ± 0.26
GWKSMIQSHPHLVAEAFRALASAQ [SPOPL]	2.4 ± 0.44	2.3 ± 0.17
DRILERIEDSTGLNRPGPAPLSSR [TCF25]	4.47 ± 0.21	4.66 ± 0.19
SARQGELQKVLLMLVDGIDPNFKM [EHMT1]	1.98 ± 0.23	2.04 ± 0.29
IQYNRRQLLILLQNCTDEGEREAI [POP5]	2.74 ± 0.3	2.78 ± 0.51
RTLSLIVCTFTYLLVGAAVFDALE [KCNK9]	2.82 ± 0.7	3.19 ± 0.81
KGEEVTPISAIRHEGKTDSERTDT [EPB41L3]	5.44 ± 0.45	5.43 ± 0.3
CTEILTEKKDTITNDSLSLKPSWF [MIA2]	3.23 ± 0.28	3.42 ± 0.42
LKYENDYPSVILRDPLQTDTLQND [ETS1]	4.2 ± 0.31	4.53 ± 0.34
VSFSTGAGGWSNHHFCVILLGFLP [BET1L]	2.82 ± 0.39	2.8 ± 0.36
VQQWLQKGTPASKLILGMPTYGRS [CHIT1]	2.25 ± 0.25	2.51 ± 0.29
NEGAIDCVNYEGQSAYDVADMLKQ [DLC1]	4.82 ± 0.28	4.82 ± 0.12
KEPAEFNGDGAFLHDNHEQMPTEI [ZNF649]	5.11 ± 0.25	5.16 ± 0.26
GGEMSPQVETSIEGTIPFSKPVKV [INTS4]	4.77 ± 0.2	4.76 ± 0.17
